Test results as given in patent US20120238503A1.
Ends that are not written are not given here.

Molecular target: α3β1 integrin on PC12 cells (rat (PC12 cells)) (UniProt P49134)
Assay: cell-based or functional assay

α3β1 integrin on PC12 cells (rat (PC12 cells)), sequence (P49134 21-798): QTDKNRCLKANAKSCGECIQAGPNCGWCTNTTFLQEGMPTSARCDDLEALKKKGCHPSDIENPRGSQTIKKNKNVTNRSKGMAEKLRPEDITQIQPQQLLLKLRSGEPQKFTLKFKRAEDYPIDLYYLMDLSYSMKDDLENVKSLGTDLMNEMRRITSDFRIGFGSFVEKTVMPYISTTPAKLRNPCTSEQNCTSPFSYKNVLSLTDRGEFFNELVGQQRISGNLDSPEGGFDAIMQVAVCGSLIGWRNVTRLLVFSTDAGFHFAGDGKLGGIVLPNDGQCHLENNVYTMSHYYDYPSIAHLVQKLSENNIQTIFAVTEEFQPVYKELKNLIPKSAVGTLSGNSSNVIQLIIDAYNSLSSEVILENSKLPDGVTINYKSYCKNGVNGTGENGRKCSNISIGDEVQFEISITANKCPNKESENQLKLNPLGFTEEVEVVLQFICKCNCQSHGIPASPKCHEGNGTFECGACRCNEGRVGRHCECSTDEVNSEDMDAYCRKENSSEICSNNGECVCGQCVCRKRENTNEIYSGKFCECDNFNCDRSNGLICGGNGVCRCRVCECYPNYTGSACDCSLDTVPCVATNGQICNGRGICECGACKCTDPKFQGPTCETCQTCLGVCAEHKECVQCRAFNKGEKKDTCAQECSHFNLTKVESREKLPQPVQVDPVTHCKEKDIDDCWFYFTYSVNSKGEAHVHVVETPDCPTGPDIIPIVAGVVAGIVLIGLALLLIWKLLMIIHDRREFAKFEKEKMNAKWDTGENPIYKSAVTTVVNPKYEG

inhibition of PC12 cell adhesion to coated rLG3 (25 µg/mL) by soluble peptide: 40 % inhibition
Binder: RNIPPFEGCIWN-NH2 [Ln2-LG3-P2 peptide (…)]
